± gives the standard deviation of the averaged measurements.
Experiment: total protein half-life in vivo (active degradation + dilution); higher = more stable protein
[1] = E. coli NCM3722 delta-clpP delta-lon delta-hslV, growth: N-lim chemostat, doubling time 6 h
[2] = E. coli NCM3722 delta-clpP, growth: N-lim chemostat, doubling time 6 h
[3] = E. coli NCM3722 delta-hslV, growth: N-lim chemostat, doubling time 6 h
[4] = E. coli NCM3722 delta-lon, growth: N-lim chemostat, doubling time 6 h
[5] = E. coli NCM3722 delta-smpB, growth: N-lim chemostat, doubling time 6 h
[6] = wild type E. coli NCM3722, growth: C-lim chemostat, doubling time 3 h
[7] = wild type E. coli NCM3722, growth: C-lim chemostat, doubling time 12 h
[8] = wild type E. coli NCM3722, growth: N-lim chemostat, doubling time 6 h
[9] = wild type E. coli NCM3722, growth: N-lim chemostat, doubling time 12 h
[10] = wild type E. coli NCM3722, growth: P-lim chemostat, doubling time 6 h
[11] = wild type E. coli NCM3722, growth: C-lim chemostat, doubling time 6 h
[12] = wild type E. coli NCM3722, growth: P-lim chemostat, doubling time 12 h

Q: With “MSEIKDVIVQGLWKNNSALVQLLGLCPLLAVTSTATNALGLGLATTLVLTLTNLTISTLRHWTPAEIRIPIYVMIIASVVSAVQMLINAYAFGLYQSLGIFIPLIVTNCIVVGRAEAFAAKKGPALSALDGFSIGMGATCAMFVLGSLREIIGNGTLFDGADALLGSWAKVLRVEIFHTDSPFLLAMLPPGAFIGLGLMLAGKYLIDERMKKRRAEAAAERALPNGETGNV” as the sequence, how does the “total protein half-life in vivo” value [1] read?
A: The value was 2.66 ± 0.39 h.

Q: And the “total protein half-life in vivo” value [2]?
A: Its value is 3.52 h.

Q: What about the “total protein half-life in vivo” value [3] of the same sequence?
A: Its value is 2.7 h.

Q: What about the “total protein half-life in vivo” value [4] of the same sequence?
A: Its value is 2.38 ± 0.21 h.

Q: What about the “total protein half-life in vivo” value [5] of the same sequence?
A: The value was 4.72 ± 0.73 h.

Q: What about the “total protein half-life in vivo” value [6] of the same sequence?
A: Its value is 2.72 ± 0.066 h.

Q: What about the “total protein half-life in vivo” value [7] of the same sequence?
A: The value was 5.17 h.

Q: And the “total protein half-life in vivo” value [8]?
A: The value was 3.33 h.

Q: What about the “total protein half-life in vivo” value [9] of the same sequence?
A: The value was 5.84 ± 1.2 h.

Q: What about the “total protein half-life in vivo” value [10] of the same sequence?
A: Its value is 3.64 h.

Q: What does the source list for “MSKLDTFIQHAVNAVPVSGTSLISSLYGDSLSHRGGEIWLGSLAALLEGLGFGERFVRTALFRLNKEGWLDVSRIGRRSFYSLSDKGLRLTRRAESKIYRAEQPAWDGKWLLLLSEGLDKSTLADVKKQLIWQGFGALAPSLMASPSQKLADVQTLLHEAGVADNVICFEAQIPLALSRAALRARVEECWHLTEQNAMYETFIQSFRPLVPLLKEAADELTPERAFHIQLLLIHFYRRVVLKDPLLPEELLPAHWAGHTARQLCINIYQRVAPAALAFVSEKGETSVGELPAPGSLYFQRFGGLNIEQEALCQFIR”?
A: total protein half-life in vivo [3]: 4.03 ± 0.075 h; total protein half-life in vivo [4]: 4.2 ± 0.044 h; total protein half-life in vivo [5]: 4.07 ± 0.076 h; total protein half-life in vivo [6]: 2.77 ± 0.17 h; total protein half-life in vivo [11]: 5.07 ± 0.31 h; total protein half-life in vivo [7]: 8.39 ± 0.13 h; total protein half-life in vivo [8]: 4.07 ± 0.22 h; total protein half-life in vivo [9]: 6.84 ± 0.13 h; total protein half-life in vivo [10]: 4.82 ± 0.088 h; total protein half-life in vivo [12]: 8.96 ± 0.47 h

Q: For “MHADTATRQHWMSVLAHSQPAELAARLNALNITADYEVIRAAETGLVQIQARMGGTGERFFAGDATLTRAAVRLTDGTLGYSWVQGRDKQHAERCALIDALMQQSRHFQNLSETLIAPLDADRMARIAARQAEVNASRVDFFTMVRGDNA”, which “total protein half-life in vivo” value [10] is on record?
A: The value was 1.11 ± 1.1 h.

Q: And the “total protein half-life in vivo” value [12]?
A: The value was 1.64 ± 0.035 h.

Q: Which “total protein half-life in vivo” value [1] does the source give for “MSEGWNIAVLGATGAVGEALLETLAERQFPVGEIYALARNESAGEQLRFGGKTITVQDAAEFDWTQAQLAFFVAGKEATAAWVEEATNSGCLVIDSSGLFALEPDVPLVVPEVNPFVLTDYRNRNVIAVPDSLTSQLLAALKPLIDQGGLSRISVTSLISASAQGKKAVDALAGQSAKLLNGIPIDEEDFFGRQLAFNMLPLLPDSEGSVREERRIVDEVRKILQDEGLMISASVVQAPVFYGHAQMVNFEALRPLAAEEARDAFVQGEDIVLSEENEFPTQVGDASGTPHLSVGCVRNDYGMPEQVQFWSVADNVRFGGALMAVKIAEKLVQEYLY” here?
A: The value was 5.37 ± 0.42 h.

Q: What about the “total protein half-life in vivo” value [2] of the same sequence?
A: Its value is 4.6 ± 0.02 h.

Q: What about the “total protein half-life in vivo” value [3] of the same sequence?
A: The value was 4.6 ± 0.11 h.

Q: What about the “total protein half-life in vivo” value [4] of the same sequence?
A: The value was 4.9 ± 0.73 h.

Q: And the “total protein half-life in vivo” value [5]?
A: Its value is 4.57 ± 0.048 h.

Q: What about the “total protein half-life in vivo” value [6] of the same sequence?
A: Its value is 3.02 ± 0.082 h.

Q: And the “total protein half-life in vivo” value [11]?
A: Its value is 5.614 ± 0.008 h.

Q: What about the “total protein half-life in vivo” value [7] of the same sequence?
A: Its value is 9.85 ± 0.24 h.

Q: And the “total protein half-life in vivo” value [8]?
A: The value was 5.14 ± 0.59 h.

Q: What about the “total protein half-life in vivo” value [9] of the same sequence?
A: The value was 8.99 ± 1.9 h.

Q: And the “total protein half-life in vivo” value [10]?
A: The value was 6.16 ± 0.097 h.

Q: And the “total protein half-life in vivo” value [12]?
A: Its value is 11.9 ± 0.28 h.

Q: Which results are given for “MNKAKRLEILTRLRENNPHPTTELNFSSPFELLIAVLLSAQATDVSVNKATAKLYPVANTPAAMLELGVEGVKTYIKTIGLYNSKAENIIKTCRILLEQHNGEVPEDRAALEALPGVGRKTANVVLNTAFGWPTIAVDTHIFRVCNRTQFAPGKNVEQVEEKLLKVVPAEFKVDCHHWLILHGRYTCIARKPRCGSCIIEDLCEYKEKVDI [P0AB83]”?
A: total protein half-life in vivo [1]: 5.59 ± 0.65 h; total protein half-life in vivo [2]: 5.67 ± 0.41 h; total protein half-life in vivo [3]: 5.9 ± 0.36 h; total protein half-life in vivo [5]: 5.611 ± 0.039 h; total protein half-life in vivo [6]: 3.22 ± 0.093 h; total protein half-life in vivo [11]: 5.58 ± 0.078 h; total protein half-life in vivo [7]: 10.7 ± 0.51 h; total protein half-life in vivo [8]: 5.79 ± 0.092 h; total protein half-life in vivo [9]: 11.95 ± 0.045 h; total protein half-life in vivo [10]: 5.88 ± 0.55 h; total protein half-life in vivo [12]: 10.9 ± 0.86 h

Q: Which results are given for “MKLFAQGTSLDLSHPHVMGILNVTPDSFSDGGTHNSLIDAVKHANLMINAGATIIDVGGESTRPGAAEVSVEEELQRVIPVVEAIAQRFEVWISVDTSKPEVIRESAKVGAHIINDIRSLSEPGALEAAAETGLPVCLMHMQGNPKTMQEAPKYDDVFAEVNRYFIEQIARCEQAGIAKEKLLLDPGFGFGKNLSHNYSLLARLAEFHHFNLPLLVGMSRKSMIGQLLNVGPSERLSGSLACAVIAAMQGAHIIRVHDVKETVEAMRVVEATLSAKENKRYE [P0AC13]”?
A: total protein half-life in vivo [1]: 4.15 ± 0.55 h; total protein half-life in vivo [2]: 3.78 ± 0.098 h; total protein half-life in vivo [3]: 4.96 ± 1.8 h; total protein half-life in vivo [4]: 4.16 ± 0.19 h; total protein half-life in vivo [5]: 3.72 ± 0.14 h; total protein half-life in vivo [6]: 2.881 ± 0.016 h; total protein half-life in vivo [11]: 4.48 ± 0.86 h; total protein half-life in vivo [8]: 3.94 ± 0.15 h; total protein half-life in vivo [9]: 6.23 ± 0.25 h; total protein half-life in vivo [10]: 5.63 ± 0.14 h; total protein half-life in vivo [12]: 11.3 ± 0.29 h

Reference: the supplement of paper PMC11246515
